Data reported in patent US20200239586A1 (LA TROBE UNIVERSITY, published 2020).

Experiments:
[1] = biological target: T1, His tagged hFn14 extracellular region mutant R56K (human, UniProt Q9NP84 28-77); experiment: ELISA with purified His-tagged hFn14 R56K; x axis 'Log (c)' without unit, µg/ml by the legend
T1 construct: not shown: (His)6 tag

[2] = biological target: phage expressed hFn14 mutant F63A (human, UniProt Q9NP84 28-77); experiment: phage ELISA (Method 2): antibody coated on the plate, 10-fold dilutions of phage displaying hFn14 F63A; HRP-conjugated anti-M13 phage polyclonal IgG, TMB, OD 450 nm; x axis = dilution of phage
Source text: For mutants P59A and F63A, binding was detected using HRP-conjugated anti-M13-phage polyclonal IgG and TMB substrate. For all other mutants binding was detected using Biotin-conjugated anti-M13-phage monoclonal antibody followed by HRP-conjugated Streptavidin and TMB substrate. Optical density at 450 nm was quantified using a Spectramax spectrophotometer. Error bars for each dilution represent the standard deviation of duplicate assays. FIG. 27A wild type Fn14, FIG. 27B W42A, FIG. 27C S54A, FIG. 27D A57G, FIG. 27E P59A, FIG. 27F S61A, FIG. 27G F63A, FIG. 27H L65A. In all cases error bars represent the standard deviation. X axis=dilution of phage. Methods according to Epitope mapping using phage expressed Fn14—Method 2
(§1) The wells of Maxisorp immunoplates (Nunc) were coated overnight at 4° C. with the target monoclonal antibodies or recombinant Tweak-Fc at a concentration of 1.5 μg/ml in PBS. mAb 5G8 was used as a negative control for ELISA plates coated with tested antibodies. […] 10-fold serial dilutions of phage were made using PBS solution and phage dilutions were added to the coated, blocked ELISA plates for 1 hour, shaking at room temperature. Phage was subsequently removed from the wells and the ELISA plates were washed three times with PBS/0.05% Tween 20. […]

[3] = biological target: phage expressed hFn14 mutant R58A (human, UniProt Q9NP84 28-77); experiment: phage ELISA (Method 2), antibody on plate, phage dilution 1/X on the x axis
Source text: FIG. 26 is a graphical representation showing results of an ELISA testing the reactivity of mutant hFn14 phage construct comprising a R58A mutation with the anti-Fn14 monoclonal antibodies CRCBT-06-001, CRCBT-06-002, CRCBT-06-004 compared to ITEM-1 and ITEM-4. Binding was detected using Biotin-conjugated anti-M13-phage monoclonal antibody followed by HRP-conjugated Streptavidin and TMB substrate. Optical density at 450 nm was quantified using a Spectramax spectrophotometer. Error bars for each dilution represent the standard deviation of duplicate assays. X axis=dilution of phage. Methods according to Epitope mapping using phage expressed Fn14—Method 2
as §1, with “temperature.” for “temperature. Phage was subsequently removed from the wells and the ELISA plates were washed three times with PBS/0.05% Tween 20.”
Method A: HRP-conjugated anti-M13-phage antibody (GE Healthcare) at a 1/5000 dilution in PBS was then added to the wells of the ELISA plates for 1 hour, shaking at room temperature. […] Optical density at 450 nm was quantified using a Spectramax absorbance spectrophotometer.

[4] = biological target: T2, synthetic peptide hFn14 sub-domain 1p (human, biotin on the added C-terminal lysine); experiment: ELISA on biotinylated synthetic peptide
T2 construct: synthesised by GLBiochem
T2 peptide: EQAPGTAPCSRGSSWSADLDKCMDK
Procedure: Peptides representing sub-domains 1p, 2 and 3 of hFn14 (FIG. 20, Panels B and C and FIG. 14, Panel A) and for disulfide pair mutants (Cys3&6ΔS and Cys4&5ΔS; FIG. 20 Panels D and E) were synthesized by GLBiochem Ltd. (Shanghai, China) and the cysteine residues for disulfide bonds were chosen as described in the solution structure by He et al., (2009). An additional lysine residue was added to the C-terminus in order to attach a biotin moiety and to enable the peptides to bind to neutravidin coated plates (Pre-blocked; Pierce). For these experiments, a control peptide with a biotin at the C-terminus was used as a negative control and isotype control antibodies were also used.
The ELISA was performed essentially according to the manufacturer's recommended protocol (Pierce). Briefly, peptide was coated onto wells (in duplicate) at 1-10 μg/ml for 2 hours at room temperature. Wells were washed in PBS/0.05% Tween 20/0.1% BSA 3 times and dilutions of each antibody were added in wash buffer for 1 hour with gentle agitation. After another three washes anti-mouse HRP-conjugated to horse radish peroxidase (HRP; Chemicon) was added at 1/1000 dilution for 1 hour shaking. Finally, after 4 further washes the plate was developed using TMB (3,3′,5,5′-tetramethylbenzidine) substrate (Pierce), and the reaction was stopped using 2M H2SO4 solution. Optical density at 450 nm was quantified using a Spectromax absorbance spectrophotometer.

B1: CRCBT-06-002 (antibody, IgG1, V domains shown)
VH: EVKLQQSGGGLVQPGGSMKLSCVASGFTFSYYWMNWVRQSPEQGLEWIAEIRLQSNDYPTHYAESVKGRFTISRDDSKNSVYLQMNNLRPEDTGIYYCACRYADYFDHWGQGTTLTVSS
VL: DTVLTQSPASLVVSLGQRATISCRASQSVSTSDYSYIHWYQQKPGQPPKFLIKYASNRDSGVPARFSGSGSGTDFTLNIHPVEEDDTAIYYCQHSWEIPPTFGAGTKLELQR
binding result [1]: binds | binding result [2]: binds | binding result [3]: binds | binding result [4]: no binding

B2: CRCBT-06-001 (antibody, IgG2b, V domains shown)
VH: QVQLQQSGGGLVQPGGSMKLSCIASGFTFSSYWMSWVRQSPEKGLEWVAEIRSKSDNYATHYAESVKGKFTISRDDSKSRFFLQMNNLRAEDTGIYYCSSTYADYFHYWGQGTDLTVSS
VL: DIVMTQTPASLAVSLGQRATISCRASQSVSTSTYSYMHWYQQKPGQPPKLLIKYASSLESGVPARFSGSGSGTDFTLNIHPVEEDDTATYYCQHSWEIPYTFGGGTKLEIKR
binding result [1]: binds | binding result [2]: binds | binding result [3]: binds | binding result [4]: no binding
